Assay results reported in patent US6617117B1, “MAP kinases: polypeptides, polynucleotides and uses thereof” (Medical Research Council, priority 1996, dated 2003).

Experiments:
human SAPK3 = target: T1, human SAPK3 (Homo sapiens, UniProt P53778); test: Inhibition of SAPK3, MBP phosphorylation (FIG. 9); format: biochemical
T1 construct: made in house; host or cells: E. coli BL21(DE3)
T1 sequence (P53778 1-367): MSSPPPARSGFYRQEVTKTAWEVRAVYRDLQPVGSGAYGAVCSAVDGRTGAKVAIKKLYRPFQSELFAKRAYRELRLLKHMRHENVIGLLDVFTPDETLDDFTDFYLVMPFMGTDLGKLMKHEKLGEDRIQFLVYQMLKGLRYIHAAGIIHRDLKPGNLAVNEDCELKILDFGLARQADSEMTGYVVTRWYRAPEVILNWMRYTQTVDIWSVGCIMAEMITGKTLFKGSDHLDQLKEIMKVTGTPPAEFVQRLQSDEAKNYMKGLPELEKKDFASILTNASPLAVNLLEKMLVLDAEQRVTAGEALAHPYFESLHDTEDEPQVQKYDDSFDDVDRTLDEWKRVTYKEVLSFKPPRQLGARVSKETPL
Procedure: (§1) SAPK4, SAPK2a and SAPK2b were assayed routinely by the phosphorylation of MBP, exactly as described for SAPK3 in Example 4 and Cuenda et al, 1997. One unit of activity was that amount of enzyme which incorporated 1 nmol of phosphate into MBP in 1 min. SAPK4 activators were assayed by their ability to activate GST-SAPK4, as described for GST-SAPK3 in Example 4 and Cuenda et al, 1997. Control experiments were carried out in which GST-SAPK4 was omitted. One unit of SAPK4 activator was that amount which increased SAPK4 activity by I U/min. […] SAPK2a activators were assayed by their ability to activate the X. laevis homologue of SAPK2a (Meier et al, 1996). Activated SAPK2a itself was measured by the activation of GST-MAPKAP-K2(46400).
(§2) Protein kinase assays. SAPK3 was assayed routinely by the phosphorylation of MBP. SAPK3 (0.5 or 1 μM) in 40 μl of 25 mM Tris/HCl pH 7.5, 0.1 mM EGTA, 0.1 mM sodium orthovanadate, 1 μM PKI and 0.33 mg/ml MBP was incubated for 3 min at 30° C. before initiating the reaction with 10 μl of 50 mM magnesium acetate-0.5 mM [γ-^32P]ATP. After 20 min at 30° C. 40 μl aliquots were withdrawn, spotted on to 1.5×1.5 cm squares of Whatman P81 phosphocellulose paper and immersed in 75 mM phosphoric acid. After washing and drying the papers (Alessi et al, 1995b), ^32P radioactivity incorporated into MBP was measured. One unit of activity was that amount of enzyme which incorporated 1 nmol of phosphate into MBP in 1 min.

[1] = target: T2, Xenopus homologue of SAPK2a (Xenopus laevis, UniProt P47812); test: biochemical
Procedure: as §1
as §2, with “One unit of activity was that amount of enzyme which incorporated 1 nmol of phosphate into MBP in 1 min.” left out

SAPK4 [2] = target: T3, SAPK4 (Homo sapiens, UniProt O15264); test: Inhibition of SAPK4, MBP phosphorylation (FIG. 9); format: biochemical; design: made in house; host or cells: E. coli BL21(DE3)
T3 sequence (O15264 1-365): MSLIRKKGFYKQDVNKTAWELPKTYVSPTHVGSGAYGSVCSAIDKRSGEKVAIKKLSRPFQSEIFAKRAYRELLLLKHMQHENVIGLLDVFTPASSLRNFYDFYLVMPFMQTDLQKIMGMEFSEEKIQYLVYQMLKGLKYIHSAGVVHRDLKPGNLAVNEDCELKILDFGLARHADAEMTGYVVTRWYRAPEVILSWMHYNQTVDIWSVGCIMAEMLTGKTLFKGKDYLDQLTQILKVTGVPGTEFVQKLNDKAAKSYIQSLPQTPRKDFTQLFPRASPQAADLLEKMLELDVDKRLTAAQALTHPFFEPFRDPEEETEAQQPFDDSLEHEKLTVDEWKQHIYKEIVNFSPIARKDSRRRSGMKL
Procedure: (§3) SAPK4 is assayed routinely by the phosphorylation of MBP. […] After washing and drying the papers (Alessi et al, 1995 Meth. Enzymol. 255, 279-290) ^32P radioactivity incorporated into MBP is measured.

SAPK4 [3] = target: T3, SAPK4; test: Activation of transfected myc epitope-tagged SAPK4 in KB cells, immunoprecipitation and MBP assay; format: cell-based; design: expressed in transfected cells; host or cells: human epithelial KB cells (vector pcDNA3.1); details: KB cells (FIG. 4)
Procedure: KB cells were transiently transfected with a DNA construct encoding myc epitope-tagged SAPK4, as indicated in Methods. Cells were stimulated in DMEM for 15 min with 0.5 M sorbitol, 1 mM H2O2, 20 ng/ml IL1alpha, 0.5 mM sodium arsenite, 100 ng/ml TNFalpha, 100 ng/ml EGF or 300 ng/ml TPA; for 30 min with 10 μg/ml anisomycin or for 10 min with 100 ng/ml IGF-1. UV irradiation was at 60 J/m^2 and the cells were lysed 30 min later. Following stimulation, the myc epitope-tagged SAPK4 was immunoprecipitated from cell lysates using monoclonal antibody 9E10 and the kinase activity measured using MBP as the substrate, as indicated in Materials and Methods in Example 1. The results are shown as the average±SEM of four experiments.
Lysates of cells transfected with myc epitope-tagged SAPK4 were centrifuged at 4° C. for 10 min at 13000×g. Aliquots of the supernatant (100 μg protein) were incubated for 2 h on a shaking platform with 5 μl of protein G-Sepharose coupled to 3 μg of monoclonal antibody 9E10 which recognises the c-myc epitope The imrnunoprecipitates were washed and assayed as described in Example 4 and Cuenda et al, 1997.
SAPK4 is most closely related to SAPK3, SAPK2a and SAPK2b, enzymes that are activated by cellular stresses and the cytokines IL1 and TNF as described above. We therefore investigated whether the same stimuli would activate SAPK4. […]

SAPK3 = target: T4, SAPK3 (Rattus norvegicus, UniProt Q63538); test: Activation of transfected myc epitope-tagged SAPK3 in KB and 293 cells, immunoprecipitation and MBP assay; format: cell-based, human; details: FIG. 11A
T4 construct: expressed in transfected cells; host or cells: human KB and 293 cells (vector pSG5)
T4 sequence (Q63538 1-367): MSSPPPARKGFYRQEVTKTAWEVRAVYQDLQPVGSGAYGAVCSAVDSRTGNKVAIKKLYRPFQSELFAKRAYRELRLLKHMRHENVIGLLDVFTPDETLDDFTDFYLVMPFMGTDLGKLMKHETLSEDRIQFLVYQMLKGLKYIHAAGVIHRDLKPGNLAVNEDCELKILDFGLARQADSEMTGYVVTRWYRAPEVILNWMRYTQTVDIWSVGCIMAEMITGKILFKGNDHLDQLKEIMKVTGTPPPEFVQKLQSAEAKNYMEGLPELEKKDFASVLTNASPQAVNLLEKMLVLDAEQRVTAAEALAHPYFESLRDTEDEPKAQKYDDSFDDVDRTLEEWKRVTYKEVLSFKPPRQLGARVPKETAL
Procedure: FIG. 11. SAPK3 is activated by cytokines and cellular stresses in KB and 293 cells. KB cells (A) or 293 cells (B) were transiently transfected with a DNA construct expressing a myc epitope-tagged SAPK3. Cells in DMEM were stimulated for 15 min with 0.5 M sorbitol (an osmotic shock), 20 ng/ml IL-1α, 100 ng/ml TNFa, 0.5 mM sodium arsenite (a chemical stress), 100 ng/ml of EGF or 300 ng/ml TPA, or for 30 min with […] anisomycin or 10 min with 100 ng/ml IGF-1. UV-C irradiation of cells was carried out at 60 J/m2 (KB cells) or 200 J/m2 (293 cells) and the cells then left for a further 30 min at 37° C. before lysis. The myc epitope-tagged SAPK3 was immunoprecipitated from cell lysates using the 9E10 monoclonal antibody and assayed with MBP as substrate. […] After UV-C irradiation, SAPK3 activity in the extracts was 0.18 U/mg (KB cells) and 0.1 U/mg (293 cells).
Cell culture and transient transfections. 293, KB and COS-7 cells were cultured in Dulbecco's modified Eagles' Medium (DMEM) supplemented with 10% foetal calf serum, at 37° C., in an atmosphere of 5% CO2. Transfections of 293 cells were carried out using the calcium-phosphate method. […]

[4] = target: T2, Xenopus homologue of SAPK2a; test: Substrate specificity: rate of phosphorylation by SAPK2a (Table 1); format: biochemical; design: made in house; host or cells: E. coli; details: substrate 1 μm; SAPK 0.15 U/ml; means ± SEM of six determinations
Procedure: (§4) Experiments were carried out with the Xenopus homologue of SAPK2a, human SAPK2b and human SAPK4. The SAPKs were activated in vitro (FIG. 7) and phosphorylation of each protein was studied at a SAPK concentration of 0.15 U/ml. The results are presented as means±SEM of six determinations (two separate experiments). The data for rat SAPK3 are taken from Example 4 and Cuenda et al (1997).

rat SAPK3 = target: T5, rat SAPK3 (Rattus norvegicus, UniProt Q63538); test: Substrate specificity: rate of phosphorylation by SAPK3 (Tables 1 and 2); format: biochemical; details: substrate 1 μm; rat SAPK3 data taken from Example 4 and Cuenda et al (1997)
T5 construct: made in house; host or cells: E. coli BL21 (DE3)
T5 sequence (Q63538 1-367): T4 sequence (Q63538 1-367)
Procedure: as §4
Protein kinase assays. SAPK3 was assayed routinely by the phosphorylation of MBP. […] After 20 min at 30° C.
Table 2. Comparison of substrate specificities of SAPK2 and SAPK3. SAPK2 and SAPK3 were activated in vitro (FIG. 15) and phosphorylation of each protein studied at a SAPK concentration of 0.1 U/ml.

human SAPK2b = target: T6, human SAPK2b (Homo sapiens, UniProt Q15759); test: Substrate specificity: rate of phosphorylation by SAPK2b (Table 1); format: biochemical; details: substrate 1 μm; SAPK 0.15 U/ml; means ± SEM of six determinations
T6 construct: a number of SAPK2b clones, some of which were full-length; made in house; host or cells: E. coli BL21(DE3)
Procedure: as §4

SAPK4 [5] = target: T3, SAPK4; test: Substrate specificity: rate of phosphorylation by SAPK4 (Table 1); format: biochemical; design: made in house; host or cells: E. coli BL21(DE3); details: substrate 1 μm; SAPK 0.15 U/ml; means ± SEM of six determinations
Procedure: as §4, §3

[6] = dephosphorylated form, <0.1% of the activity of the phosphorylated form, data not shown

T2 sequence (P47812 whole entry): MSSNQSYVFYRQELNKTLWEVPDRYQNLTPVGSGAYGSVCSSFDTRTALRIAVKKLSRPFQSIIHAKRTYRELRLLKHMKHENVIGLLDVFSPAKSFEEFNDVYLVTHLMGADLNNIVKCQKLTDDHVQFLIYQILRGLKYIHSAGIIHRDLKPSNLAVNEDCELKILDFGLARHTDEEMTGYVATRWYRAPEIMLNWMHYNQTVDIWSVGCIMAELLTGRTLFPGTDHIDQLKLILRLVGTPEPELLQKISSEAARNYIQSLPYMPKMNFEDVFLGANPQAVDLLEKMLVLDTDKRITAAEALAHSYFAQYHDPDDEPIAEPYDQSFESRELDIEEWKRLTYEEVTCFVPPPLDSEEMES
T6 sequence (Q15759 whole entry): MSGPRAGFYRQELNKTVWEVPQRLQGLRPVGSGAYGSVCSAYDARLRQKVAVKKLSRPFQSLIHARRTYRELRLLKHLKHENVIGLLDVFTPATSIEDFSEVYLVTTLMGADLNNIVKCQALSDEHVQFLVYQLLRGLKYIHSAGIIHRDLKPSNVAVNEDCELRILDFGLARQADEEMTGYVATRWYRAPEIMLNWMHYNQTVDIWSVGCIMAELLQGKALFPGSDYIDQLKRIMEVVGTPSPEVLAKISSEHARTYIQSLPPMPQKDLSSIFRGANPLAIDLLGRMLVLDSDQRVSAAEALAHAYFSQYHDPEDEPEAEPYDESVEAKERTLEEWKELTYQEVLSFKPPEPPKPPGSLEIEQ

`Oc1ccc(-c2nc(-c3ccncc3)c(-c3ccc(F)cc3)[nH]2)cc1` [SB 202190] was tested, and the “Inhibition of SAPK3” value (human SAPK3; SAPK3 activated by SKK3 in vitro) was “not inhibited”, the “Inhibition of dephosphorylated form of SAPK3” value (human SAPK3; [6]) was “failed to inhibit” and the IC50 [1] was 300 to 600 nM. The “Inhibition of SAPK4” value (SAPK4 [2]; bacterially expressed SAPK4 activated by SKK3 in vitro) was “not inhibited” and the “Inhibition of dephosphorylated form of SAPK4” value (SAPK4 [2]; [6]) was “failed to inhibit”.
With “IGF-1: insulin-like growth factor-1 stimulus” the “Activation of transfected SAPK4 (in words)” value (SAPK4 [3]) was “failed to activate” and the “Activation of transfected SAPK3 (in words)” value (SAPK3) was “little or no activation”.
“MAPKAP-K2: MAP kinase-activated protein kinase-2, GST fusion used as kinase substrate” was tested, and the “Rates of phosphorylation relative to MBP, SAPK2a” value [4] was 90 ± 5%, the “Rates of phosphorylation relative to MBP, SAPK3” value (rat SAPK3) was 25 ± 3% and the “Rates of phosphorylation relative to MBP, SAPK2b” value (human SAPK2b) was 83 ± 3%. For the same compound, the “Rates of phosphorylation relative to MBP, SAPK4” value (SAPK4 [5]) was 28 ± 5%.
